In paper PMC6231261, “Enhanced triacylglycerol production in the diatom Phaeodactylum tricornutum by inactivation of a Hotdog-fold thioesterase gene using TALEN-based targeted mutagenesis” (Biotechnology for Biofuels, 2018):

Tests used:
Experiment in all cases: DTNB spectrophotometric CoA release (A412)
Type in all cases: biochemical, Phaeodactylum tricornutum
[1] = substrate: CC(C)(COP(=O)(O)OP(=O)(O)OC[C@H]1O[C@@H](n2cnc3c(N)ncnc32)[C@H](O)[C@@H]1OP(=O)(O)O)[C@@H](O)C(=O)NCCC(=O)NCCSC(=O)CC(=O)O; conditions: 10 mM HEPES pH 7.5, 50 mM KCl, 0.3 mM DTNB, room temperature in methods (37 °C in Fig. 1 legend)
Excerpt: (§1) DTNB spectrophotometric CoA release (A412) on ptTES1

[2] = substrate: CC/C=C\C/C=C\C/C=C\C/C=C\C/C=C\CCCC(=O)SCCNC(=O)CCNC(=O)[C@H](O)C(C)(C)COP(=O)(O)OP(=O)(O)OC[C@H]1O[C@@H](n2cnc3c(N)ncnc32)[C@H](O)[C@@H]1OP(=O)(O)O; conditions: 10 mM HEPES pH 7.5, 50 mM KCl, 0.3 mM DTNB, room temperature in methods (37 °C in Fig. 1 legend)
Excerpt: as §1

[3] = substrate: CCCCCCCC/C=C\CCCCCCCC(=O)SCCNC(=O)CCNC(=O)[C@H](O)C(C)(C)COP(=O)(O)OP(=O)(O)OC[C@H]1O[C@@H](n2cnc3c(N)ncnc32)[C@H](O)[C@@H]1OP(=O)(O)O; conditions: 10 mM HEPES pH 7.5, 50 mM KCl, 0.3 mM DTNB, room temperature in methods (37 °C in Fig. 1 legend), substrate inhibition above 60 μM
Excerpt: as §1

[4] = substrate: CCCCCCCCCC(=O)SCCNC(=O)CCNC(=O)[C@H](O)C(C)(C)COP(=O)(O)OP(=O)(O)OC[C@H]1O[C@@H](n2cnc3c(N)ncnc32)[C@H](O)[C@@H]1OP(=O)(O)O; conditions: 10 mM HEPES pH 7.5, 50 mM KCl, 0.3 mM DTNB, room temperature in methods (37 °C in Fig. 1 legend)
Excerpt: as §1

[5] = substrate: CCCCCCCCCCCCCC(=O)SCCNC(=O)CCNC(=O)[C@H](O)C(C)(C)COP(=O)(O)OP(=O)(O)OC[C@H]1O[C@@H](n2cnc3c(N)ncnc32)[C@H](O)[C@@H]1OP(=O)(O)O; conditions: 10 mM HEPES pH 7.5, 50 mM KCl, 0.3 mM DTNB, room temperature in methods (37 °C in Fig. 1 legend)
Excerpt: as §1

[6] = substrate: CCCCCCCCCCCCCCCC(=O)SCCNC(=O)CCNC(=O)[C@H](O)C(C)(C)COP(=O)(O)OP(=O)(O)OC[C@H]1O[C@@H](n2cnc3c(N)ncnc32)[C@H](O)[C@@H]1OP(=O)(O)O; conditions: 10 mM HEPES pH 7.5, 50 mM KCl, 0.3 mM DTNB, room temperature in methods (37 °C in Fig. 1 legend), substrate inhibition above 60 μM
Excerpt: as §1

[7] = substrate: CCCCCCCCCCCCCCCCCC(=O)SCCNC(=O)CCNC(=O)[C@H](O)C(C)(C)COP(=O)(O)OP(=O)(O)OC[C@H]1O[C@@H](n2cnc3c(N)ncnc32)[C@H](O)[C@@H]1OP(=O)(O)O; conditions: 10 mM HEPES pH 7.5, 50 mM KCl, 0.3 mM DTNB, room temperature in methods (37 °C in Fig. 1 legend)
Excerpt: as §1

B1: ptTES1 (Phaeodactylum tricornutum CCAP 1055/1) (protein)
chain: MGLIHTPRTIVSIAKGLWKRRQGTVDWPGLGPDKPYVYNARLGLFDVDYLGHLNNAAYLSHAELARWELTAANGMLTSMLQSGTNFIVSGSCIRYRQEIRPVFRKFQVDTYVAGLDQRTIWMVQNFRYPGQNERIRAQMIVQGVAVQKTKGIIDPRSFFVDTVGMPSDLIESVNLPITSDDTVEDVLERYSFLEKALRRAATVDDELQKKEANKE
notes: codon-optimized synthetic gene in pET28a, His6-tagged, E. coli Rosetta (DE3), Ni-NTA purified, about 25 kDa on SDS-PAGE; tag removal not mentioned
- Km [1]: 14.64 µM
- Vmax [1]: 0.00205 µmol/min/mg
- kcat [1]: 0.0009 s⁻¹
- kcat/Km [1]: 60.7 M⁻¹ s⁻¹
- Km [2]: 38.61 µM
- Vmax [2]: 0.0164 µmol/min/mg
- kcat [2]: 0.0071 s⁻¹
- kcat/Km [2]: 184 M⁻¹ s⁻¹
- Km [3]: 12.37 µM
- Vmax [3]: 0.0508 µmol/min/mg
- kcat [3]: 0.022 s⁻¹
- kcat/Km [3]: 1780 M⁻¹ s⁻¹
- Km [4]: 91.76 µM
- Vmax [4]: 0.0228 µmol/min/mg
- kcat [4]: 0.0099 s⁻¹
- kcat/Km [4]: 108 M⁻¹ s⁻¹
- Km [5]: 21.79 µM
- Vmax [5]: 0.0302 µmol/min/mg
- kcat [5]: 0.0131 s⁻¹
- kcat/Km [5]: 602 M⁻¹ s⁻¹
- Km [6]: 14.76 µM
- Vmax [6]: 0.0453 µmol/min/mg
- kcat [6]: 0.0196 s⁻¹
- kcat/Km [6]: 1330 M⁻¹ s⁻¹
- Km [7]: 8.246 µM
- Vmax [7]: 0.0451 µmol/min/mg
- kcat [7]: 0.0196 s⁻¹
- kcat/Km [7]: 2370 M⁻¹ s⁻¹
